The target in assay [1] is T1, ErbB4.Fc (UniProt Q15303).
T1 sequence (looked up): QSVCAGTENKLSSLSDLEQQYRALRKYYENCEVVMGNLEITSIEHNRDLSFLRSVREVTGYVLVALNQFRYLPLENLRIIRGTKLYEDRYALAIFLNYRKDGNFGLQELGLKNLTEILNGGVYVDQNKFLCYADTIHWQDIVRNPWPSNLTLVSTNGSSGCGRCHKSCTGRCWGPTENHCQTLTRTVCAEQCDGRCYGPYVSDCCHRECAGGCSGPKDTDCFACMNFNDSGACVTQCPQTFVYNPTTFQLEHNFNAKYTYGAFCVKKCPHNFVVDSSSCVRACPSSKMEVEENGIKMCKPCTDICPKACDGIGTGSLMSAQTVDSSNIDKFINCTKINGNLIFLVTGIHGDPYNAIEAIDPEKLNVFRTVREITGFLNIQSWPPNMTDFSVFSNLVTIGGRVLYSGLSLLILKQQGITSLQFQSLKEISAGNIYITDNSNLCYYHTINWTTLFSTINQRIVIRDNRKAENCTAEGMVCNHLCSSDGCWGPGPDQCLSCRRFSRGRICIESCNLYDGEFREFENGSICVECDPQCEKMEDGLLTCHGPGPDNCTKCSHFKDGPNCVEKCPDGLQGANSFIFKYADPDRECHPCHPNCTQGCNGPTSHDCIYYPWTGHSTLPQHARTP
In words: displacement of ^125I-NRG3^EGF.Fc (80 pM) from immobilized ErbB4.Fc by NRG1^EGF, 96-well plate, nonlinear regression.

The target in assay [2] is T1, ErbB4.Fc. Nature of the assay: displacement of ^125I-NRG3^EGF.Fc (80 pM) from immobilized ErbB4.Fc by unlabeled NRG3^EGF.Fc, 96-well plate, nonlinear regression.

The results in this text go back to US20030036166A1.

Broadly, the Ki is a measure of affinity in units of concentration, obtained from inhibition or displacement. A higher Ki goes with lower affinity.

Sequence of NRG3^EGF.Fc (O35181 284-344 limits assumed): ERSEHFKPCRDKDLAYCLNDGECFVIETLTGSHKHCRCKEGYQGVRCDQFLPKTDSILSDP

The substance “NRG1^EGF (EGF-like domain of heregulin-β1, rHRGβ1 177-244) (from UniProt Q02297 177-244) (ligand)” registered a Ki in the assay with ErbB4.Fc [1] of 1 nM.

“NRG3^EGF.Fc (from UniProt O35181 284-344) (Fc fusion)” displayed a Ki with ErbB4.Fc [2] of 9 nM.
